To fix the notation:
B1: OR4K15 (parent)
chain: GUUAACGGUCAUAGGCCAUGGAAACUAGGAGCACCAUUUCGCUGCCAGUGAAGAAAUGAACAAAGAAAAUCUGGGCCAGGCAGGCAUCAAAAGAAAUAGUCUUGCGCUCAACCAGAAAGUCUGUAAUCAUUUUAAGGGUA

Data on 167 variants can be found in the RNAGym collection of RNA variant scans (doi:10.7554/elife.90254).

Variants of B1 are the subject of this series. The series can be described thus: self-cleavage, relative activity (ratio to wild type); higher = more cleavage; in vitro, sequencing; the parent is a self-cleaving ribozyme.
C76U A96C: the self-cleavage was 0.1.

Turning to A78C A82G, the self-cleavage was determined as 0.11.

Take G79U A96U: the self-cleavage worked out at 0.13.

In the case of U72C U108C, the self-cleavage amounted to 0.01.

Regarding U72C U108A, the self-cleavage was found to be 0.07.

Consider A78G A140G, for which the self-cleavage was 0.32.

As for A78G A140U, the self-cleavage came out at 0.36.

For the variant U72C U133C, the self-cleavage stood at 0.13.

As to G80A A96G, the self-cleavage is 0.18.

On to G75A U122C, for which the self-cleavage worked out at 0.08.

As for G75A U122A, the self-cleavage was determined as 0.17.

As for G75C, the self-cleavage was found to be 0.17.

Take G75U: the self-cleavage stood at 0.12.

For G75A, the self-cleavage came to 0.11.

Take G75A A95G: the self-cleavage is 0.05.

For C77U A126U, the self-cleavage worked out at 1.88.

For the variant G79A A140G, the self-cleavage was found to be 0.13.

Regarding G74C A140G, the self-cleavage was determined as 0.23.

With U72C A129U, the self-cleavage was 0.07.

On to G74A A110G, for which the self-cleavage was found to be 0.02.

Take A78G U130C: the self-cleavage worked out at 0.3.

Consider A78G U130G, for which the self-cleavage came out at 0.

In the case of A78G U130A, the self-cleavage came out at 0.17.

Consider G79C A91G, for which the self-cleavage was 0.09.

On to A78U U133A, for which the self-cleavage came out at 0.72.

As to U72G U102A, the self-cleavage amounted to 0.11.

G75A G119A: the self-cleavage turned out to be 0.17.

A78G A129U: the self-cleavage is 0.25.

As to A78G U97G, the self-cleavage is 0.27.

Turning to A78G U97A, the self-cleavage amounted to 0.27.

Take A78U G84C: the self-cleavage is 0.11.

On to G80A A114U, for which the self-cleavage is 0.05.

Regarding C77A U100C, the self-cleavage came to 0.61.

A78C U131C: the self-cleavage worked out at 0.17.

Consider G73A A116U, for which the self-cleavage was 0.03.

As to A78G A91U, the self-cleavage was determined as 0.22.

In the case of A78G A91G, the self-cleavage is 0.13.

As for A78U A98G, the self-cleavage is 0.06.

As to G75A A116U, the self-cleavage amounted to 0.05.

Regarding A78G U120A, the self-cleavage was determined as 0.22.

With C77U A114U, the self-cleavage is 0.14.

With C81A A82G, the self-cleavage came out at 0.13.

With G75A C77U, the self-cleavage came out at 0.11.

Turning to G80A A86U, the self-cleavage came to 0.24.

For A78U A126G, the self-cleavage amounted to 0.17.

For the variant G75U U127C, the self-cleavage stood at 0.11.

For the variant G75C U97C, the self-cleavage came out at 0.12.

Turning to U72C U127A, the self-cleavage was 0.19.

On to C77U U102A, for which the self-cleavage came to 1.57.

Turning to A78G A114G, the self-cleavage stood at 0.05.

Turning to G73A U108C, the self-cleavage is 0.01.

On to G80A U132C, for which the self-cleavage amounted to 0.08.

For the variant C77U U130C, the self-cleavage amounted to 1.61.

For the variant A78G G137U, the self-cleavage stood at 0.25.

As for A82C A91U, the self-cleavage worked out at 0.3.

In the case of A78G A90G, the self-cleavage stood at 0.24.

With C77U A91G, the self-cleavage is 1.91.

As to A78G U127C, the self-cleavage was 0.22.

Consider A78G U127G, for which the self-cleavage was found to be 0.27.

As for C77U C113U, the self-cleavage amounted to 0.27.

G79A A110U: the self-cleavage came to 0.24.

In the case of A78G A118G, the self-cleavage came to 0.29.

As for A78U G93U, the self-cleavage is 0.53.

For G74U A118G, the self-cleavage is 0.1.

For G79U G99A, the self-cleavage stood at 0.03.

Regarding U72C A134G, the self-cleavage was 0.16.

For the variant U72G U97G, the self-cleavage turned out to be 0.3.

On to U72C A91G, for which the self-cleavage was 0.05.

As for C81U A96G, the self-cleavage was found to be 0.43.

Consider U72C U122A, for which the self-cleavage was 0.09.

Regarding U72C A140G, the self-cleavage is 0.34.

G74A A96G: the self-cleavage came to 0.24.

Turning to G74A A96C, the self-cleavage was 0.14.

A78G U124C: the self-cleavage came out at 0.14.

With U72G A114C, the self-cleavage is 2.51.

On to A78G U100A, for which the self-cleavage worked out at 0.04.

Turning to A78G U100C, the self-cleavage stood at 0.31.

Regarding C81A U103C, the self-cleavage was 0.13.

For the variant U72G A135G, the self-cleavage was 0.22.

G74C A111G: the self-cleavage amounted to 0.02.

As to G73A A90G, the self-cleavage was 0.03.

With A82C U131A, the self-cleavage was 0.14.

Regarding A78U U127A, the self-cleavage was 0.8.

Regarding G75C A98G, the self-cleavage was 0.07.

In the case of U72C A111G, the self-cleavage came out at 0.02.

As to A78U U100A, the self-cleavage worked out at 0.07.

On to C76U A118G, for which the self-cleavage was 0.1.

With G75U U133A, the self-cleavage was found to be 0.15.

Take G79A U108A: the self-cleavage was found to be 0.02.

For A82G A89G, the self-cleavage worked out at 0.45.

With C76G, the self-cleavage stood at 0.16.

For the variant C76A, the self-cleavage was determined as 0.1.

Turning to C76U, the self-cleavage is 0.05.

With C76A U120A, the self-cleavage turned out to be 0.19.

Take C81U U103A: the self-cleavage stood at 0.1.

A78C U132C: the self-cleavage was determined as 0.33.

As to G74U A111G, the self-cleavage came out at 0.04.

Consider G73A G79A, for which the self-cleavage was determined as 0.17.

In the case of A78U U108G, the self-cleavage was found to be 0.01.

Consider A78U U108A, for which the self-cleavage came out at 0.01.

Take G73A A118G: the self-cleavage worked out at 0.14.

For the variant G74C U127C, the self-cleavage came out at 0.13.

Consider G75C U130C, for which the self-cleavage turned out to be 0.08.

G75C U122C: the self-cleavage worked out at 0.12.

Turning to C81A U132C, the self-cleavage stood at 0.29.

As for G80A A125U, the self-cleavage amounted to 0.24.

Take U72G: the self-cleavage came out at 0.12.

As for C76U U108A, the self-cleavage is 0.01.

Turning to G73A A95G, the self-cleavage turned out to be 0.28.

For the variant G74U C113A, the self-cleavage came out at 0.04.

Turning to C81U U132C, the self-cleavage worked out at 0.5.

In the case of G80A A129U, the self-cleavage was 0.02.

As for U72C A114G, the self-cleavage came out at 2.31.

Take A82C A117G: the self-cleavage was found to be 0.15.

For the variant G73A U120C, the self-cleavage worked out at 0.07.

Regarding G75A U108C, the self-cleavage is 0.03.

Take G79A A129G: the self-cleavage turned out to be 0.17.

As for G79A A129C, the self-cleavage stood at 0.05.

Take A78G A82U: the self-cleavage worked out at 0.19.

For A78U U139A, the self-cleavage amounted to 0.5.

Take A78U U139C: the self-cleavage amounted to 0.28.

Regarding A78U A82G, the self-cleavage was determined as 0.08.

As for A78U A82U, the self-cleavage was determined as 0.15.

Turning to C77U U132C, the self-cleavage came to 1.95.

Regarding A78G U132C, the self-cleavage turned out to be 0.12.

On to G73U A126G, for which the self-cleavage is 0.07.

In the case of G74A U108C, the self-cleavage came out at 0.01.

For the variant U72C U132C, the self-cleavage was found to be 0.3.

Regarding C76U A78C, the self-cleavage was 0.11.

As to G74A A117G, the self-cleavage stood at 0.2.

In the case of G74A A117U, the self-cleavage was 0.19.

U72C A95G: the self-cleavage stood at 0.35.

U72C A95U: the self-cleavage is 0.35.

As to G79A A94U, the self-cleavage was 0.15.

For the variant U72G U120C, the self-cleavage turned out to be 0.13.

As to A78G U103C, the self-cleavage came out at 0.11.

Regarding C81U A111U, the self-cleavage turned out to be 0.05.

Take G80A A135G: the self-cleavage came out at 0.31.

For A78C U102C, the self-cleavage amounted to 0.42.

With A78G C81U, the self-cleavage worked out at 0.14.

With A78G C81A, the self-cleavage was determined as 0.1.

On to C81A A90G, for which the self-cleavage was 0.07.

For G74A U127C, the self-cleavage was found to be 0.02.

With A78C C109U, the self-cleavage was 0.19.

As for G75A G93A, the self-cleavage turned out to be 0.14.

For U72G C101A, the self-cleavage was found to be 0.1.

As to G75C U103G, the self-cleavage came out at 0.02.

G75C U103C: the self-cleavage was found to be 0.12.

For C77U A117G, the self-cleavage was 2.83.

On to U72C A89G, for which the self-cleavage worked out at 0.24.

Turning to C77U A82G, the self-cleavage is 1.26.

Consider A78U U120A, for which the self-cleavage came out at 0.18.

Take G75A U103C: the self-cleavage came to 0.06.

As to G74A A118G, the self-cleavage came out at 0.14.

Turning to G74U U87A, the self-cleavage was 0.15.

As for G79A U127C, the self-cleavage was determined as 0.06.

Turning to C76U U87C, the self-cleavage came out at 0.17.

As to A82C A94G, the self-cleavage stood at 0.19.

G75U C85U: the self-cleavage was 0.21.

For the variant A78G U139C, the self-cleavage was 0.24.

Take A78G U139A: the self-cleavage was found to be 0.23.

For U72C A86C, the self-cleavage was 0.28.

As to A78U A114C, the self-cleavage stood at 0.05.

Turning to G80A A90G, the self-cleavage turned out to be 0.18.

Regarding A78G U131C, the self-cleavage amounted to 0.07.

A82C A134G: the self-cleavage was found to be 0.17.

On to G74U G83A, for which the self-cleavage came out at 0.16.
